Reference: the supplement of paper PMC9112550, “Optimization of the antimicrobial peptide Bac7 by deep mutational scanning” (BMC Biology, 2022)

Test system: Escherichia coli TOP10
Assay: shrunken log2 fold change of peptide-encoding DNA abundance (4.5 h post-induction vs induction); higher = less antimicrobial activity (less host growth inhibition)
Settings: time post-induction: 4.5 h; library: site-saturation at positions 5, 18, 19, 20
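Also: peptides expressed intracellularly from a pBAD plasmid library in pooled LB shake-flask culture, induced with 0.3% L-arabinose, DNA abundance read by NGS, three biological replicates, DESeq2 with apeglm shrinkage.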

In the case of RRIRERPPRLPRPRPRPHNEPRP, the “shrunken log2 fold change” value was -0.438.
With RRIRSRPPRLPRPRPRPAGMPRP the “shrunken log2 fold change” value was 0.223.
RRIRFRPPRLPRPRPRPTLMPRP was tested, and the “shrunken log2 fold change” value was 0.0425.
With RRIRRRPPRLPRPRPRPVPGPRP the “shrunken log2 fold change” value was 0.402.
For RRIRGRPPRLPRPRPRPVHIPRP, the “shrunken log2 fold change” value was -0.165.
For RRIRPRPPRLPRPRPRPWQMPRP, the “shrunken log2 fold change” value was 0.0571.
In the case of RRIRMRPPRLPRPRPRPNSAPRP, the “shrunken log2 fold change” value was 0.0568.
In the case of RRIRARPPRLPRPRPRPYQSPRP, the “shrunken log2 fold change” value was -0.0285.
With RRIRARPPRLPRPRPRPMRFPRP the “shrunken log2 fold change” value was 0.869.
RRIRKRPPRLPRPRPRPTIPPRP was tested, and the “shrunken log2 fold change” value was 0.263.
With RRIRERPPRLPRPRPRPPYCPRP the “shrunken log2 fold change” value was -0.275.
With RRIRHRPPRLPRPRPRPKDHPRP the “shrunken log2 fold change” value was -0.274.
For RRIRWRPPRLPRPRPRPMFQPRP, the “shrunken log2 fold change” value was -0.241.
With RRIRARPPRLPRPRPRPASGPRP the “shrunken log2 fold change” value was 1.35.
For RRIRNRPPRLPRPRPRPWQPPRP, the “shrunken log2 fold change” value was 0.104.
In the case of RRIRARPPRLPRPRPRPSHRPRP, the “shrunken log2 fold change” value was 0.0188.
For RRIRPRPPRLPRPRPRPSHVPRP, the “shrunken log2 fold change” value was -0.544.
For RRIRSRPPRLPRPRPRPRCVPRP, the “shrunken log2 fold change” value was 0.116.
RRIRARPPRLPRPRPRPDSSPRP was tested, and the “shrunken log2 fold change” value was 0.371.
In the case of RRIRERPPRLPRPRPRPGSKPRP, the “shrunken log2 fold change” value was -0.129.
RRIRCRPPRLPRPRPRPWCKPRP was tested, and the “shrunken log2 fold change” value was 0.145.
RRIRGRPPRLPRPRPRPEFMPRP was tested, and the “shrunken log2 fold change” value was 0.887.
RRIRRRPPRLPRPRPRPHNVPRP was tested, and the “shrunken log2 fold change” value was -0.916.
With RRIRLRPPRLPRPRPRPSVGPRP the “shrunken log2 fold change” value was 0.101.
With RRIRKRPPRLPRPRPRPGTSPRP the “shrunken log2 fold change” value was 0.0376.
With RRIRDRPPRLPRPRPRPHFRPRP the “shrunken log2 fold change” value was -0.121.
With RRIRIRPPRLPRPRPRPDMRPRP the “shrunken log2 fold change” value was -0.0655.
With RRIRQRPPRLPRPRPRPVHSPRP the “shrunken log2 fold change” value was -0.0049.
For RRIRFRPPRLPRPRPRPQYNPRP, the “shrunken log2 fold change” value was -1.05.
In the case of RRIRKRPPRLPRPRPRPDFPPRP, the “shrunken log2 fold change” value was 0.416.
With RRIRGRPPRLPRPRPRPAKKPRP the “shrunken log2 fold change” value was 0.00559.
With RRIRQRPPRLPRPRPRPRMMPRP the “shrunken log2 fold change” value was -0.161.
For RRIRTRPPRLPRPRPRPYNYPRP, the “shrunken log2 fold change” value was -0.866.
In the case of RRIRNRPPRLPRPRPRPSDHPRP, the “shrunken log2 fold change” value was -0.381.
For RRIRPRPPRLPRPRPRPVHDPRP, the “shrunken log2 fold change” value was -0.115.
For RRIRPRPPRLPRPRPRPGPHPRP, the “shrunken log2 fold change” value was 0.134.
With RRIRSRPPRLPRPRPRPRAVPRP the “shrunken log2 fold change” value was 0.582.
In the case of RRIRWRPPRLPRPRPRPYMMPRP, the “shrunken log2 fold change” value was -0.842.
In the case of RRIRDRPPRLPRPRPRPDWHPRP, the “shrunken log2 fold change” value was 0.0912.
In the case of RRIRCRPPRLPRPRPRPHMVPRP, the “shrunken log2 fold change” value was -0.149.
With RRIRRRPPRLPRPRPRPYPNPRP the “shrunken log2 fold change” value was -0.0882.
For RRIRERPPRLPRPRPRPCTIPRP, the “shrunken log2 fold change” value was -0.487.
With RRIRNRPPRLPRPRPRPEGAPRP the “shrunken log2 fold change” value was 2.8.
In the case of RRIRSRPPRLPRPRPRPWEQPRP, the “shrunken log2 fold change” value was -0.208.
With RRIRRRPPRLPRPRPRPIHQPRP the “shrunken log2 fold change” value was -0.136.
In the case of RRIRHRPPRLPRPRPRPMHHPRP, the “shrunken log2 fold change” value was -0.154.
For RRIRARPPRLPRPRPRPHWNPRP, the “shrunken log2 fold change” value was -0.0187.
For RRIRHRPPRLPRPRPRPEQTPRP, the “shrunken log2 fold change” value was -0.01.
For RRIRFRPPRLPRPRPRPHYLPRP, the “shrunken log2 fold change” value was -0.217.
In the case of RRIRNRPPRLPRPRPRPWGRPRP, the “shrunken log2 fold change” value was 0.0851.
For RRIRTRPPRLPRPRPRPGAYPRP, the “shrunken log2 fold change” value was -0.143.
With RRIRRRPPRLPRPRPRPSHSPRP the “shrunken log2 fold change” value was -0.00512.
In the case of RRIRRRPPRLPRPRPRPTWGPRP, the “shrunken log2 fold change” value was 0.42.
For RRIRPRPPRLPRPRPRPVSGPRP, the “shrunken log2 fold change” value was 0.584.
In the case of RRIRGRPPRLPRPRPRPGKTPRP, the “shrunken log2 fold change” value was 0.0643.
For RRIRWRPPRLPRPRPRPCKGPRP, the “shrunken log2 fold change” value was -0.186.
With RRIRMRPPRLPRPRPRPRIGPRP the “shrunken log2 fold change” value was 0.396.
In the case of RRIRERPPRLPRPRPRPIVYPRP, the “shrunken log2 fold change” value was 0.0176.
RRIRSRPPRLPRPRPRPFELPRP was tested, and the “shrunken log2 fold change” value was 0.0413.
In the case of RRIRLRPPRLPRPRPRPSTAPRP, the “shrunken log2 fold change” value was -1.05.
RRIRTRPPRLPRPRPRPREHPRP was tested, and the “shrunken log2 fold change” value was 0.327.
For RRIRSRPPRLPRPRPRPHFHPRP, the “shrunken log2 fold change” value was -0.428.
RRIRLRPPRLPRPRPRPAEDPRP was tested, and the “shrunken log2 fold change” value was -0.00769.
In the case of RRIRCRPPRLPRPRPRPQGGPRP, the “shrunken log2 fold change” value was -0.107.
RRIRIRPPRLPRPRPRPHRAPRP was tested, and the “shrunken log2 fold change” value was 0.0775.
In the case of RRIRWRPPRLPRPRPRPDKPPRP, the “shrunken log2 fold change” value was 0.0507.
For RRIRERPPRLPRPRPRPYSLPRP, the “shrunken log2 fold change” value was -0.0204.
In the case of RRIRKRPPRLPRPRPRPFSIPRP, the “shrunken log2 fold change” value was -0.0639.
For RRIRHRPPRLPRPRPRPAQMPRP, the “shrunken log2 fold change” value was 0.127.
In the case of RRIRVRPPRLPRPRPRPQCAPRP, the “shrunken log2 fold change” value was 0.135.
For RRIRNRPPRLPRPRPRPIQQPRP, the “shrunken log2 fold change” value was -0.000431.
In the case of RRIRLRPPRLPRPRPRPYDRPRP, the “shrunken log2 fold change” value was -0.0202.
In the case of RRIRARPPRLPRPRPRPYKAPRP, the “shrunken log2 fold change” value was -0.302.
RRIRERPPRLPRPRPRPCITPRP was tested, and the “shrunken log2 fold change” value was -0.395.
With RRIRVRPPRLPRPRPRPATMPRP the “shrunken log2 fold change” value was -0.259.
For RRIRVRPPRLPRPRPRPMGYPRP, the “shrunken log2 fold change” value was -0.0568.
RRIRWRPPRLPRPRPRPERLPRP was tested, and the “shrunken log2 fold change” value was 0.277.
In the case of RRIRFRPPRLPRPRPRPPNHPRP, the “shrunken log2 fold change” value was -0.0407.
RRIRERPPRLPRPRPRPFHAPRP was tested, and the “shrunken log2 fold change” value was -0.0736.
RRIRHRPPRLPRPRPRPLRAPRP was tested, and the “shrunken log2 fold change” value was 0.513.
RRIRERPPRLPRPRPRPAWSPRP was tested, and the “shrunken log2 fold change” value was 0.233.
With RRIRHRPPRLPRPRPRPFGLPRP the “shrunken log2 fold change” value was -0.0904.
For RRIRGRPPRLPRPRPRPDDAPRP, the “shrunken log2 fold change” value was 0.314.
In the case of RRIRDRPPRLPRPRPRPPGTPRP, the “shrunken log2 fold change” value was 0.435.
In the case of RRIRNRPPRLPRPRPRPLHMPRP, the “shrunken log2 fold change” value was -0.372.
RRIRLRPPRLPRPRPRPQVWPRP was tested, and the “shrunken log2 fold change” value was 0.000105.
For RRIRHRPPRLPRPRPRPLIAPRP, the “shrunken log2 fold change” value was -0.261.
RRIRMRPPRLPRPRPRPTGAPRP was tested, and the “shrunken log2 fold change” value was 1.25.
With RRIRGRPPRLPRPRPRPHMNPRP the “shrunken log2 fold change” value was 0.298.
RRIRHRPPRLPRPRPRPTTIPRP was tested, and the “shrunken log2 fold change” value was -0.165.
With RRIRFRPPRLPRPRPRPHCAPRP the “shrunken log2 fold change” value was -0.17.
In the case of RRIRNRPPRLPRPRPRPIKVPRP, the “shrunken log2 fold change” value was -0.607.
In the case of RRIRSRPPRLPRPRPRPTLWPRP, the “shrunken log2 fold change” value was 0.448.
For RRIRMRPPRLPRPRPRPVAYPRP, the “shrunken log2 fold change” value was 0.214.
In the case of RRIRYRPPRLPRPRPRPSNPPRP, the “shrunken log2 fold change” value was -0.512.
With RRIRQRPPRLPRPRPRPLKAPRP the “shrunken log2 fold change” value was -0.253.
For RRIRRRPPRLPRPRPRPNTFPRP, the “shrunken log2 fold change” value was 0.085.
RRIRRRPPRLPRPRPRPKRFPRP was tested, and the “shrunken log2 fold change” value was 0.305.
For RRIRIRPPRLPRPRPRPVMHPRP, the “shrunken log2 fold change” value was 0.152.
With RRIRIRPPRLPRPRPRPFHFPRP the “shrunken log2 fold change” value was -0.27.
For RRIRKRPPRLPRPRPRPNAMPRP, the “shrunken log2 fold change” value was -0.0822.
In the case of RRIRNRPPRLPRPRPRPFGVPRP, the “shrunken log2 fold change” value was 0.125.
In the case of RRIRWRPPRLPRPRPRPWNVPRP, the “shrunken log2 fold change” value was 0.0207.
In the case of RRIRTRPPRLPRPRPRPKMAPRP, the “shrunken log2 fold change” value was 0.129.
For RRIRIRPPRLPRPRPRPMSLPRP, the “shrunken log2 fold change” value was -0.0475.
For RRIRIRPPRLPRPRPRPSTTPRP, the “shrunken log2 fold change” value was -0.189.
For RRIRNRPPRLPRPRPRPYILPRP, the “shrunken log2 fold change” value was -1.07.
In the case of RRIRNRPPRLPRPRPRPHQAPRP, the “shrunken log2 fold change” value was -0.0146.
In the case of RRIRMRPPRLPRPRPRPVAKPRP, the “shrunken log2 fold change” value was 1.43.
In the case of RRIRQRPPRLPRPRPRPYFPPRP, the “shrunken log2 fold change” value was -0.283.
RRIRIRPPRLPRPRPRPSKWPRP was tested, and the “shrunken log2 fold change” value was -0.539.
For RRIRMRPPRLPRPRPRPAAHPRP, the “shrunken log2 fold change” value was 0.531.
With RRIRTRPPRLPRPRPRPNGNPRP the “shrunken log2 fold change” value was -0.302.
In the case of RRIRGRPPRLPRPRPRPNPSPRP, the “shrunken log2 fold change” value was 0.294.
In the case of RRIRARPPRLPRPRPRPGQSPRP, the “shrunken log2 fold change” value was 0.266.
With RRIRTRPPRLPRPRPRPLDHPRP the “shrunken log2 fold change” value was -0.186.
RRIRIRPPRLPRPRPRPVMRPRP was tested, and the “shrunken log2 fold change” value was 0.144.
In the case of RRIRWRPPRLPRPRPRPEDIPRP, the “shrunken log2 fold change” value was -0.0433.
RRIRMRPPRLPRPRPRPRRAPRP was tested, and the “shrunken log2 fold change” value was 1.55.
In the case of RRIRPRPPRLPRPRPRPGGTPRP, the “shrunken log2 fold change” value was 0.269.
With RRIRIRPPRLPRPRPRPNEHPRP the “shrunken log2 fold change” value was -0.459.
In the case of RRIRVRPPRLPRPRPRPSICPRP, the “shrunken log2 fold change” value was -0.208.
With RRIRWRPPRLPRPRPRPTYTPRP the “shrunken log2 fold change” value was -0.136.
RRIRHRPPRLPRPRPRPDMCPRP was tested, and the “shrunken log2 fold change” value was -0.173.
RRIRIRPPRLPRPRPRPDTKPRP was tested, and the “shrunken log2 fold change” value was -0.188.
